Experimental data as given in patent US20180256699A1.

Columns and labels:
[1] = target: Recombinant soluble murine αMβ2 integrin (R&D Systems) (murine) (UniProt P05555); test: ELISA, murine αMβ2 integrin coated, ACT serially diluted, with calcium, rabbit anti-ACT detection
[2] = target: αMβ2 integrin on J774A.1 murine macrophage cells (murine) (UniProt P05555); test: flow cytometry: biotinylated ACT on J774A.1 cells on ice, no scAb, detected with streptavidin-PE; background: cells only 274, non-biotinylated ACT 292
[3] = target: Recombinant soluble murine αMβ2 integrin (R&D Systems) (murine) (UniProt P05555); test: ELISA, murine αMβ2 integrin coated, domain serially diluted, with calcium, rabbit anti-ACT detection

“Bordetella adenylate cyclase toxin (ACT), full-length, acylated (from UniProt J7QLC0 1-1706)” was tested, and the EC50 [1] was 0.02 µM and the mean fluorescence (PE-A) [2] was 4810.

“RTX751*, RTX domain of ACT, residues 751-1706, acylated (from UniProt J7QLC0 751-1706)” gave an EC50 [3] of 0.02 µM.
